Experimental data from paper PMC2275666 (The EMBO Journal, 2008).
Several values for one entry are separate records, joined by “and”; a condition that tells them apart may be missing. Identical values can stand only once. Like-named read-outs stand apart in the source and are kept apart here.

B1: hTFIIEα AC-D (C-terminal acidic domain of the human TFIIEα subunit, residues 378–439) (domain or fragment)
chain: EEDEEEDDEFEEVADDPIVMVAGRPFSYSEVSQRPELVAQMTPEEKEAYIAMGQRMFEDLFE
B2: FLAG-tagged hTFIIH p62 PH-D, wild type (domain or fragment)
chain: MATSSEEVLLIVKKVRQKKQDGALYLMAERIAWAPEGKDRFTISHMYADIKCQKISPEGKAKIQLQLVLHAGDTTNFHFSNESTAVKERDAVKDLLQQLLPKFKRKAN
B3: hTFIIEα AC-D(381−394) peptide (N-terminal tail only) (peptide)
peptide: EEEDDEFEEVADDP
B4: hTFIIEα(351−439) (longer construct with STDE and acidic regions, NMR titration) (domain or fragment)
chain: GSDSESETSESDDDSPPRPAAVAVHKREEDEEEDDEFEEVADDPIVMVAGRPFSYSEVSQRPELVAQMTPEEKEAYIAMGQRMFEDLFE
B5: 6H–hTFIIEα wild type (full-length hTFIIEα) (natural protein)
chain: MADPDVLTEVPAALKRLAKYVIRGFYGIEHALALDILIRNSCVKEEDMLELLKFDRKQLRSVLNNLKGDKFIKCRMRVETAADGKTTRHNYYFINYRTLVNVVKYKLDHMRRRIETDERDSTNRASFKCPVCSSTFTDLEANQLFDPMTGTFRCTFCHTEVEEDESAMPKKDARTLLARFNEQIEPIYALLRETEDVNLAYEILEPEPTEIPALKQSKDHAATTAGAASLAGGHHREAWATKGPSYEDLYTQNVVINMDDQEDLHRASLEGKSAKERPIWLRESTVQGAYGSEDMKEGGIDMDAFQEREEGHAGPDDNEEVMRALLIHEKKTSSAMAGSVGAAAPVTAANGSDSESETSESDDDSPPRPAAVAVHKREEDEEEDDEFEEVADDPIVMVAGRPFSYSEVSQRPELVAQMTPEEKEAYIAMGQRMFEDLFE
B6: GST–p62(1−333) (domain or fragment)
chain: not shown
B7: GST–p62(1−108) (GST-tagged p62 PH-D) (domain or fragment)
chain: MATSSEEVLLIVKKVRQKKQDGALYLMAERIAWAPEGKDRFTISHMYADIKCQKISPEGKAKIQLQLVLHAGDTTNFHFSNESTAVKERDAVKDLLQQLLPKFKRKAN
B8: GST–p62(1−238) (domain or fragment)
chain: not shown

Assays:
[1] = target: T1, hTFIIH p62 PH-D (pleckstrin homology domain of the p62 subunit of human TFIIH) (human, UniProt P32780 1-108); assay: NMR titration
T1 sequence: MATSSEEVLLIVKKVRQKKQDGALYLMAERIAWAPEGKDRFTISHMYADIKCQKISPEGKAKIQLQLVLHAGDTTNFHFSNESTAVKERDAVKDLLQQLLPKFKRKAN

[2] = target: B5; assay: pull-down
[3] = target: full-length GST–p62(1−548) (human, UniProt P32780 1-548); assay: pull-down
[4] = target: B5; assay: pull-down; remark: listed apart in the source

Binder	Kd [1]	binding result [4]	other results
B1	376 nM and 237 nM	–	–
B2	–	–	binding result [2]: binds
B3	2120 ± 192 nM	–	–
B4	400 ± 43 nM	–	–
B5	–	–	binding result [3]: binds
B6	–	binds	–
B7	–	binds	–
B8	–	binds	–
